The values below come from PMC6220203 (2018).

For this experiment, the target named is Biotinylated aMD5 (C-terminal biotinylated macrocycle) (macrocyclized; biotin (NHS-biotin) on the added C-terminal Lys). The experiment in a line: SPR. Background: SPR reads the build-up and loss of mass on a sensor chip optically.

B1: MET receptor extracellular domain SEMA–IPT4 (residues 1–931)-Fc (Fc fusion)
chain: ECKEALAKSEMNVNMKYQLPNFTAETPIQNVILHEHHIFLGATNYIYVLNEEDLQKVAEYKTGPVLEHPDCFPCQDCSSKANLSGGVWKDNINMALVVDTYYDDQLISCGSVNRGTCQRHVFPHNHTADIQSEVHCIFSPQIEEPSQCPDCVVSALGAKVLSSVKDRFINFFVGNTINSSYFPDHPLHSISVRRLKETKDGFMFLTDQSYIDVLPEFRDSYPIKYVHAFESNNFIYFLTVQRETLDAQTFHTRIIRFCSINSGLHSYMEMPLECILTEKRKKRSTKKEVFNILQAAYVSKPGAQLARQIGASLNDDILFGVFAQSKPDSAEPMDRSAMCAFPIKYVNDFFNKIVNKNNVRCLQHFYGPNHEHCFNRTLLRNSSGCEARRDEYRTEFTTALQRVDLFMGQFSEVLLTSISTFIKGDLTIANLGTSEGRFMQVVVSRSGPSTPHVNFLLDSHPVSPEVIVEHTLNQNGYTLVITGKKITKIPLNGLGCRHFQSCSQCLSAPPFVQCGWCHDKCVRSEECLSGTWTQQICLPAIYKVFPNSAPLEGGTRLTICGWDFGFRRNNKFDLKKTRVLLGNESCTLTLSESTMNTLKCTVGPAMNKHFNMSIIISNGHGTTQYSTFSYVDPVITSISPKYGPMAGGTLLTLTGNYLNSGNSRHISIGGKTCTLKSVSNSILECYTPAQTISTEFAVKLKIDLANRETSIFSYREDPIVYEIHPTKSFISGGSTITGVGKNLNSVSVPRMVINVHEAGRNFTVACQHRSNSEIICCTTPSLQQLNLQLPLKTKAFFMLDGILSKYFDLIYVHNPVFKPFEKPVMISMGNENVLEIKGNDIDPEAVKGEVLKVGNKSCENIHLHSEAVLCTVPNDLLKLNSELNIEWKQAISSTVLGKVIVQPDQNF
In the case of B1, the koff stood at 0.00041 s⁻¹.

By koff is commonly meant the first-order rate constant of dissociation. A low value points to a long-lived complex.
